Laboratory results from patent publication US20150105316A1 (TREVENA, published 2015).
Where no end group is shown, it is not given here. [ ]: non-standard residue; d: D form. The star is where a group is joined. Val(3-OH) = CC(C)(O)[C@H](N)C(=O)O; Tle = CC(C)(C)[C@H](N)C(=O)O; Ac6c = NC1(C(=O)O)CCCCC1; NHCH2tBu = CC(C)(C)CN*; Aib = CC(C)(N)C(=O)O; NHiPr = CC(C)N*; Sar = CNCC(=O)O

T1: human angiotensin 2 type 1 receptor (human, UniProt P30556 1-359)
T1 sequence (looked up): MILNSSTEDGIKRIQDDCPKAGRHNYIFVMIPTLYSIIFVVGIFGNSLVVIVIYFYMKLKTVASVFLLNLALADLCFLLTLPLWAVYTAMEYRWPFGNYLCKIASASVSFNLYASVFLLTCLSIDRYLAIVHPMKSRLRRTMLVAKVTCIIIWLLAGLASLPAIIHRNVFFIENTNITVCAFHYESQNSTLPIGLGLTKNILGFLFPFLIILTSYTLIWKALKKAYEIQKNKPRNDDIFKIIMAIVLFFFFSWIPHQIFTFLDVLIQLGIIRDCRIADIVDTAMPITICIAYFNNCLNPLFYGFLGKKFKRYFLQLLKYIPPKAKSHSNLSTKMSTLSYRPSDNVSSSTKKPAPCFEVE

T2: rat angiotensin 2 type 1 receptor (rat, UniProt P25095 1-359)
T2 sequence (looked up): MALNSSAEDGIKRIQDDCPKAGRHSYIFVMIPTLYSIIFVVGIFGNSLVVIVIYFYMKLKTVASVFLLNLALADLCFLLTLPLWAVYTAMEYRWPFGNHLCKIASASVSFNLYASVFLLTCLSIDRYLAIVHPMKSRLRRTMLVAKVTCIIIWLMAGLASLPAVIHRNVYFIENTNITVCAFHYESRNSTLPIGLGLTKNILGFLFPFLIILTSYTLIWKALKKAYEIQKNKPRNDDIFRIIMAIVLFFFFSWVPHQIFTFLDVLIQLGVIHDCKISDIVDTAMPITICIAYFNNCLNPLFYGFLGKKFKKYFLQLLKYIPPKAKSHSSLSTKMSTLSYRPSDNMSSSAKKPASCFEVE

B1: SEQ ID NO: 52 (Sar-Arg-Val-D-Cys-Ile-His-Cys-D-Ala) (peptide)
peptide: [Sar]RV[dC]IHC[dA]
modifications: not fully specified; printed as Sar-Arg-Val-D-Cys-Ile-His-Cys-D-Ala; cysteine pairing not given here

Each binder was assayed against T1, human angiotensin 2 type 1 receptor (assay: cell-based or functional assay).

IP1 G-protein assay EC50 [nM] | IP1 G-protein assay pEC50 | IP1 G-protein assay Span | Binder
> 10000 | > 9.2 |  | [Sar]RVYPHPA [SEQ ID NO: 1 (Sar-Arg-Val-Tyr-Pro-His-Pro-Ala)]
> 1.3 | < 9.2 | < 103 | [Sar]RVY[Aib]HPV [SEQ ID NO: 33 (Sar-Arg-Val-Tyr-AA01-His-Pro-Val)]
> 1.3 | < 9.2 | < 103 | [Sar]RVY[Ac6c]HPR [SEQ ID NO: 42 (Sar-Arg-Val-Tyr-cyHex-His-Pro-Arg)]
> 1.3 | < 9.2 | < 103 | [Sar]RVY[Ac6c]HP-NHiPr [SEQ ID NO: 46 (Sar-Arg-Val-Tyr-cyHex-His-Pro-NH-i-Pr)]
> 1.3 | < 9.2 | < 103 | [Sar]KVY[Ac6c]HPA [SEQ ID NO: 51 (Sar-Lys-Val-Tyr-cyHex-His-Pro-Ala)]
> 1.3 | > 9.2 |  | [Sar]RVY[Ac6c]HPV [SEQ ID NO: 13 (Sar-Arg-Val-Tyr-cyHex-His-Pro-Val)]

These binders were tested against T2, rat angiotensin 2 type 1 receptor (assay: cell-based or functional assay).

IP1 G-protein assay EC50 [nM] | IP1 G-protein assay Span | IP1 G-protein assay pEC50 | Binder
> 0.6 | < 104 | < 9.2 | [Sar]RVYPHPA [SEQ ID NO: 1 (Sar-Arg-Val-Tyr-Pro-His-Pro-Ala)]
> 0.6 | < 104 | < 9.2 | [Sar]RVY[Ac6c]HPH [SEQ ID NO: 37 (Sar-Arg-Val-Tyr-cyHex-His-Pro-His)]
> 0.6 | < 104 | < 9.2 | [Sar]RVY[Ac6c]HPD [SEQ ID NO: 44 (Sar-Arg-Val-Tyr-cyHex-His-Pro-Asp)]
> 0.6 | < 104 | < 9.2 | XRVYXHPA (not fully specified; X1 Sar; X5 NMeIle) [SEQ ID NO: 58 (Sar-Arg-Val-Tyr-NMeIle-His-Pro-Ala)]
> 0.6 |  | > 9.2 | [Sar]RVY[Ac6c]HPV [SEQ ID NO: 13 (Sar-Arg-Val-Tyr-cyHex-His-Pro-Val)]

Molecular target: T1, human angiotensin 2 type 1 receptor
Test: cell-based or functional assay
Remark: another data set of the same source

beta-arrestin2 assay EC50 [nM] | beta-arrestin2 assay Span | beta-arrestin2 assay pEC50 | Binder
> 3.2 | < 101 | < 8.5 | [Sar]RVYPHPA [SEQ ID NO: 1 (Sar-Arg-Val-Tyr-Pro-His-Pro-Ala)]
> 3.2 | < 101 | < 8.5 | [Sar]RVY[Aib]HPV [SEQ ID NO: 33 (Sar-Arg-Val-Tyr-AA01-His-Pro-Val)]
> 3.2 | < 101 | < 8.5 | [Sar]RVY[Ac6c]HPH [SEQ ID NO: 37 (Sar-Arg-Val-Tyr-cyHex-His-Pro-His)]
> 3.2 | < 101 | < 8.5 | [Sar]RVY[Ac6c]HPR [SEQ ID NO: 42 (Sar-Arg-Val-Tyr-cyHex-His-Pro-Arg)]
> 3.2 | < 101 | < 8.5 | [Sar]RVY[Ac6c]HPD [SEQ ID NO: 44 (Sar-Arg-Val-Tyr-cyHex-His-Pro-Asp)]
> 3.2 | < 101 | < 8.5 | [Sar]RVY[Ac6c]HP-NHiPr [SEQ ID NO: 46 (Sar-Arg-Val-Tyr-cyHex-His-Pro-NH-i-Pr)]
> 3.2 | < 101 | < 8.5 | [Sar]KVY[Ac6c]HPA [SEQ ID NO: 51 (Sar-Lys-Val-Tyr-cyHex-His-Pro-Ala)]
 | < 101 |  | XRVYXHPA (not fully specified; X1 Sar; X5 NMeIle) [SEQ ID NO: 58 (Sar-Arg-Val-Tyr-NMeIle-His-Pro-Ala)]
> 3.2 | < 101 | < 8.5 | [Sar]RVY[Tle]HPV [SEQ ID NO: 29 (Sar-Arg-Val-Tyr-AA02-His-Pro-Val)]
> 3.2 | < 101 | < 8.5 | [Sar]RVY[Tle]HPT [SEQ ID NO: 30 (Sar-Arg-Val-Tyr-AA02-His-Pro-Thr)]
> 3.2 | < 101 | < 8.5 | [Sar]RVY[Ac6c]HP[Val(3-OH)] [SEQ ID NO: 31 (Sar-Arg-Val-Tyr-cyHex-His-Pro-AA03)]
> 3.2 | < 101 | < 8.5 | [Sar]RVY[Ac6c]HPG [SEQ ID NO: 32 (Sar-Arg-Val-Tyr-cyHex-His-Pro-Gly)]
> 3.2 | < 101 | < 8.5 | [Sar]RVY[Ac6c]HPC [SEQ ID NO: 34 (Sar-Arg-Val-Tyr-cyHex-His-Pro-Cys)]
> 3.2 | < 101 | < 8.5 | [Sar]RVY[Ac6c]HP[Aib] [SEQ ID NO: 35 (Sar-Arg-Val-Tyr-cyHex-His-Pro-AA01)]
> 3.2 | < 101 | < 8.5 | [Sar]RVY[Ac6c]HPN [SEQ ID NO: 36 (Sar-Arg-Val-Tyr-cyHex-His-Pro-Asn)]
> 3.2 | < 101 | < 8.5 | [Sar]RVYXHPT (not fully specified (residue 5); printed as Sar-Arg-Val-Tyr-AA01-His-Pro-Thr) [SEQ ID NO: 40 (Sar-Arg-Val-Tyr-AA01-His-Pro-Thr)]
> 3.2 | < 101 | < 8.5 | [Sar]RVY[Ac6c]HP [SEQ ID NO: 41 (Sar-Arg-Val-Tyr-cyHex-His-Pro)]
> 3.2 | < 101 | < 8.5 | [Sar]RVY[Ac6c]HPE [SEQ ID NO: 43 (Sar-Arg-Val-Tyr-cyHex-His-Pro-Glu)]
> 3.2 | < 101 | < 8.5 | [Sar]RVY[Ac6c]HP-NHCH2tBu [SEQ ID NO: 47 (Sar-Arg-Val-Tyr-cyHex-His-Pro-NH-neopentyl)]
> 3.2 | < 101 | < 8.5 | [Sar]RVY[Ac6c]HP-NHEt [SEQ ID NO: 48 (Sar-Arg-Val-Tyr-cyHex-His-Pro-NH-ethyl)]
> 3.2 | < 101 | < 8.5 | [Sar]RVY[Ac6c]HP-NHMe [SEQ ID NO: 49 (Sar-Arg-Val-Tyr-cyHex-His-Pro-NH-methyl)]
> 3.2 | < 101 | < 8.5 | [Sar]RVY[Ac6c]HPK [SEQ ID NO: 50 (Sar-Arg-Val-Tyr-cyHex-His-Pro-Lys)]
> 3.2 | < 101 | < 8.5 | B1

Molecular target: T2, rat angiotensin 2 type 1 receptor
Test: cell-based or functional assay
Remark: another data set of the same source

beta-arrestin2 assay EC50 [nM] | beta-arrestin2 assay Span | beta-arrestin2 assay pEC50 | Binder
> 3.2 | < 105 | < 8.5 | [Sar]RVYPHPA [SEQ ID NO: 1 (Sar-Arg-Val-Tyr-Pro-His-Pro-Ala)]
> 3.2 | < 105 | < 8.5 | [Sar]RVY[Aib]HPV [SEQ ID NO: 33 (Sar-Arg-Val-Tyr-AA01-His-Pro-Val)]
> 3.2 | < 105 | < 8.5 | [Sar]RVY[Ac6c]HPH [SEQ ID NO: 37 (Sar-Arg-Val-Tyr-cyHex-His-Pro-His)]
> 3.2 | < 105 | < 8.5 | [Sar]RVY[Ac6c]HPR [SEQ ID NO: 42 (Sar-Arg-Val-Tyr-cyHex-His-Pro-Arg)]
> 3.2 | < 105 | < 8.5 | [Sar]RVY[Ac6c]HPD [SEQ ID NO: 44 (Sar-Arg-Val-Tyr-cyHex-His-Pro-Asp)]
> 3.2 | < 105 | < 8.5 | [Sar]RVY[Ac6c]HP-NHiPr [SEQ ID NO: 46 (Sar-Arg-Val-Tyr-cyHex-His-Pro-NH-i-Pr)]
> 3.2 | < 105 | < 8.5 | [Sar]KVY[Ac6c]HPA [SEQ ID NO: 51 (Sar-Lys-Val-Tyr-cyHex-His-Pro-Ala)]
 | < 105 |  | XRVYXHPA (not fully specified; X1 Sar; X5 NMeIle) [SEQ ID NO: 58 (Sar-Arg-Val-Tyr-NMeIle-His-Pro-Ala)]
> 3.2 | < 105 | < 8.5 | [Sar]RVY[Ac6c]HPV [SEQ ID NO: 13 (Sar-Arg-Val-Tyr-cyHex-His-Pro-Val)]
> 3.2 | < 105 | < 8.5 | [Sar]RVY[Tle]HPV [SEQ ID NO: 29 (Sar-Arg-Val-Tyr-AA02-His-Pro-Val)]
> 3.2 | < 105 | < 8.5 | [Sar]RVY[Tle]HPT [SEQ ID NO: 30 (Sar-Arg-Val-Tyr-AA02-His-Pro-Thr)]
> 3.2 | < 105 | < 8.5 | [Sar]RVY[Ac6c]HP[Val(3-OH)] [SEQ ID NO: 31 (Sar-Arg-Val-Tyr-cyHex-His-Pro-AA03)]
> 3.2 | < 105 | < 8.5 | [Sar]RVY[Ac6c]HPG [SEQ ID NO: 32 (Sar-Arg-Val-Tyr-cyHex-His-Pro-Gly)]
> 3.2 | < 105 | < 8.5 | [Sar]RVY[Ac6c]HPC [SEQ ID NO: 34 (Sar-Arg-Val-Tyr-cyHex-His-Pro-Cys)]
> 3.2 | < 105 | < 8.5 | [Sar]RVY[Ac6c]HP[Aib] [SEQ ID NO: 35 (Sar-Arg-Val-Tyr-cyHex-His-Pro-AA01)]
> 3.2 | < 105 | < 8.5 | [Sar]RVY[Ac6c]HPN [SEQ ID NO: 36 (Sar-Arg-Val-Tyr-cyHex-His-Pro-Asn)]
> 3.2 | < 105 | < 8.5 | [Sar]RVYXHPT (not fully specified (residue 5); printed as Sar-Arg-Val-Tyr-AA01-His-Pro-Thr) [SEQ ID NO: 40 (Sar-Arg-Val-Tyr-AA01-His-Pro-Thr)]
> 3.2 | < 105 | < 8.5 | [Sar]RVY[Ac6c]HP [SEQ ID NO: 41 (Sar-Arg-Val-Tyr-cyHex-His-Pro)]
> 3.2 | < 105 | < 8.5 | [Sar]RVY[Ac6c]HPE [SEQ ID NO: 43 (Sar-Arg-Val-Tyr-cyHex-His-Pro-Glu)]
> 3.2 | < 105 | < 8.5 | [Sar]RVY[Ac6c]HP-NHEt [SEQ ID NO: 48 (Sar-Arg-Val-Tyr-cyHex-His-Pro-NH-ethyl)]
> 3.2 | < 105 | < 8.5 | [Sar]RVY[Ac6c]HP-NHMe [SEQ ID NO: 49 (Sar-Arg-Val-Tyr-cyHex-His-Pro-NH-methyl)]
> 3.2 | < 105 | < 8.5 | [Sar]RVY[Ac6c]HPK [SEQ ID NO: 50 (Sar-Arg-Val-Tyr-cyHex-His-Pro-Lys)]
> 3.2 | < 105 | < 8.5 | B1
